Series [1] has as its target p33/p55 complex (86 kDa, monomeric complex) (Helicobacter pylori strain 60190). The experiment in a line: negative-stain electron microscopy.
Series [2] deals with purified recombinant VacA p55 domain (Helicobacter pylori strain 60190). The experiment in a line: SEC. (In general: Size exclusion chromatography separates by hydrodynamic size, large species first.)
In series [3] the target is recombinant refolded VacA p33 domain (Helicobacter pylori strain 60190). The experiment in a line: SEC.
Series [4] concerns the molecule itself. The experiment in a line: negative-stain electron microscopy.

“And” between values parts separate entries of the source, which are not always exact repeats. Equal entries are not always repeated.

Consider “p33/p55 complex (86 kDa, monomeric complex)”, for which the stoichiometry N in series [1] is 6 and 7 and 12.
For “recombinant refolded VacA p33 domain (domain or fragment)”, the stoichiometry N in series [2] worked out at 1; in series [3], 3.

B1: p88 VacA purified from H. pylori broth culture supernatant (natural protein)
chain: AFFTTVIIPAIVGGIATGTAVGTVSGLLGWGLKQAEEANKTPDKPDKVWRIQAGKGFNEFPNKEYDLYKSLLSSKIDGGWDWGNAATHYWIKGGQWNKLEVDMKDAVGTYKLSGLRNFTGGDLDVNMQKATLRLGQFNGNSFTSYKDSADRTTRVDFNAKNILIDNFLEINNRVGSGAGRKASSTVLTLQASEGITSSKNAEISLYDGATLNLASNSVKLNGNVWMGRLQYVGAYLAPSYSTINTSKVTGEVNFNHLTVGDHNAAQAGIIASNKTHIGTLDLWQSAGLNIIAPPEGGYKDKPNNTPSQSGAKNDKQESSQNNSNTQVINPPNSTQKTEVQPTQVIDGPFAGGKDTVVNIDRINTKADGTIKVGGFKASLTTNAAHLNIGKGGVNLSNQASGRTLLVENLTGNITVDGPLRVNNQVGGYALAGSSANFEFKAGVDTKNGTATFNNDISLGRFVNLKVDAHTANFKGIDTGNGGFNTLDFSGVTNKVNINKLITASTNVAVKNFNINELIVKTNGVSVGEYTHFSEDIGSQSRINTVRLETGTRSIFSGGVKFKSGEKLVIDEFYYSPWNYFDARNIKNVEITRKFASSTPENPWGTSKLMFNNLTLGQNAVMDYSQFSNLTIQGDFINNQGTINYLVRGGKVATLNVGNAAAMMFNNDIDSATGFYKPLIKINSAQDLIKNTEHVLLKAKIIGYGNVSTGTNGISNVNLEEQFKERLALYNNNNRMDTCVVRNTDDIKACGMAIGNQSMVNNPDNYKYLIGKAWKNIGISKTANGSKISVYYLGNSTPTENGGNTTNLPTNTTNNARFASYA
As to B1, the “stoichiometry N” value in series [4] is 6 and 7 and 12 to 14 (2×).

As a reminder, the stoichiometry N is the number of molecules, sites or subunits per partner or assembly.

The record behind these values is paper PMC2910095 (Biochemistry, 2010).
